Key:
[1] = test system: c-Src; experiment: phosphorylation enrichment, bacterial display (enrichment ratio); higher = better substrate or ligand; peptides without Tyr show the background
[2] = test system: c-Abl (mouse); experiment: as above
[3] = biological target: Fyn (UniProt P06241); experiment: as above
[4] = biological target: Jak2 (UniProt O60674); experiment: as above
[5] = biological target: FGFR3 (UniProt P22607); experiment: as above
[6] = biological target: EPHB2 (UniProt P29323); experiment: as above
[7] = biological target: MERTK (UniProt Q12866); experiment: as above
MERTK, sequence (Q12866 whole entry, looked up): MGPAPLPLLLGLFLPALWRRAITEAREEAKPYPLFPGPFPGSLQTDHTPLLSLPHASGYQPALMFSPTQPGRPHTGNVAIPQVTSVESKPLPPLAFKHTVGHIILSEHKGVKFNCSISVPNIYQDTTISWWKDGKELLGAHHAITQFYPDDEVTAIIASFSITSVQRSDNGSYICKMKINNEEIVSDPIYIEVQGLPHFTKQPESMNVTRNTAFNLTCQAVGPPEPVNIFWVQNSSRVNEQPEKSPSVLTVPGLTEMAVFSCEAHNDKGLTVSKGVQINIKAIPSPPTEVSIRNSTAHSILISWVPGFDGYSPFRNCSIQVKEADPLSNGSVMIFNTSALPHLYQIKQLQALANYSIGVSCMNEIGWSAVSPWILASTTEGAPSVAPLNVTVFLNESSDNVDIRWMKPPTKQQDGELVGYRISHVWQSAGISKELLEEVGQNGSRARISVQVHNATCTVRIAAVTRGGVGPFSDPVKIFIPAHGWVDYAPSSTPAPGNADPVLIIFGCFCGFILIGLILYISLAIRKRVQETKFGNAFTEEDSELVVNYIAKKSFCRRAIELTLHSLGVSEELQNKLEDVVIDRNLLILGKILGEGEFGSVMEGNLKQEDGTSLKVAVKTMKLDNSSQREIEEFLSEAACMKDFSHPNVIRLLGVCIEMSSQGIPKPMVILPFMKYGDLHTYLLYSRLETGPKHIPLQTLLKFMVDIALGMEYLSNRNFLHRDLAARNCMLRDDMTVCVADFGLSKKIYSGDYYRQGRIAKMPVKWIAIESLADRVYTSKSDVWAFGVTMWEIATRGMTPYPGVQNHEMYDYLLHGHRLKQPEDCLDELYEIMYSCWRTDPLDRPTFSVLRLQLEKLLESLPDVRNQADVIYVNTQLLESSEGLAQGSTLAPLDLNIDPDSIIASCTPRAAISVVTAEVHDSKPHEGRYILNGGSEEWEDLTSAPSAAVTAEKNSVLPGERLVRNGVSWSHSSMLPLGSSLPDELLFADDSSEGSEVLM

[8] = biological target: EPHB1 (UniProt P54762); experiment: as above
[9] = biological target: Hck (UniProt P08631); experiment: as above
Hck, sequence (P08631 whole entry, looked up): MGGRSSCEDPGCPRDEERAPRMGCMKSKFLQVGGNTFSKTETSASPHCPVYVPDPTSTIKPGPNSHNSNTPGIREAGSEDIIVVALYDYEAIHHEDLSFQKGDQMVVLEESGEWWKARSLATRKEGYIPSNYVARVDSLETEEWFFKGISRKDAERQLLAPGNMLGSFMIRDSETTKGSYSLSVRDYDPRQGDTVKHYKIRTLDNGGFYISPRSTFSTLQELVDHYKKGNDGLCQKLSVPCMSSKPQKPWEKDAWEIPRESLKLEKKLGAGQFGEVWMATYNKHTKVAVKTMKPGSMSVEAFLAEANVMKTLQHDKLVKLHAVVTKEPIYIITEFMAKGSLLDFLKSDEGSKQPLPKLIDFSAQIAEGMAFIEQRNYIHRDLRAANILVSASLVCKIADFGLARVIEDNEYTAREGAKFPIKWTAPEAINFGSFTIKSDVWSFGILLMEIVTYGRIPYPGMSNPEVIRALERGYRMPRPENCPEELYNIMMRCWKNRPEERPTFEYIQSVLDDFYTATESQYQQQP

[10] = biological target: Fes (UniProt P07332); experiment: as above
[11] = test system: AncSZ; experiment: as above
[12] = biological target: FGFR1 (UniProt P11362); experiment: as above
FGFR1, sequence (P11362 whole entry, looked up): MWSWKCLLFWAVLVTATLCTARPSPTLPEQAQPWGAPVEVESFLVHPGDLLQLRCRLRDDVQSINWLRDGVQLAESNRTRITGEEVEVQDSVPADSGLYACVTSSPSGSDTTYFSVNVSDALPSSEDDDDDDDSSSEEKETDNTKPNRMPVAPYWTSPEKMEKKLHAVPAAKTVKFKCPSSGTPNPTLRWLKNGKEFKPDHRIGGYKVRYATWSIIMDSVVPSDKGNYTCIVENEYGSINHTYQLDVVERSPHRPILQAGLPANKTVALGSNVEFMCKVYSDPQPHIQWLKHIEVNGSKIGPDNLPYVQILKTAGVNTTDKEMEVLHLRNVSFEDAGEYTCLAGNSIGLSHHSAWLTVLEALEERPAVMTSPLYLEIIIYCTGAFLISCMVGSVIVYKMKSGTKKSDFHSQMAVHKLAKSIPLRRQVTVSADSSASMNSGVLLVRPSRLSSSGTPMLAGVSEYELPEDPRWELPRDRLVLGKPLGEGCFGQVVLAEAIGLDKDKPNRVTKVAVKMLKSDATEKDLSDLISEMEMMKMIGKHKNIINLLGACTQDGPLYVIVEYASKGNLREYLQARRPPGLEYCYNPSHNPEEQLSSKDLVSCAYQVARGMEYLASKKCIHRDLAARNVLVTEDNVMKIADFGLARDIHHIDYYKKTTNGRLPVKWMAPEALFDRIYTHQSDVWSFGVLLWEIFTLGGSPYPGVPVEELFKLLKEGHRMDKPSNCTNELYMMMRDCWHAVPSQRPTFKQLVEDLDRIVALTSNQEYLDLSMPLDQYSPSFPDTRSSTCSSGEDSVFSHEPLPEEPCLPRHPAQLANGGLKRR

[13] = test system: Fer (mouse); experiment: as above
[14] = biological target: c-Src SH2; experiment: SH2 binding enrichment of the phosphorylated peptide, bacterial display (enrichment ratio); higher = better substrate or ligand; peptides without Tyr show the background
[15] = biological target: SHP2-C SH2; experiment: as above
[16] = biological target: Grb2 SH2 (UniProt P62993); experiment: as above
Grb2 SH2, sequence (P62993 whole entry, looked up, the tested form may be a part): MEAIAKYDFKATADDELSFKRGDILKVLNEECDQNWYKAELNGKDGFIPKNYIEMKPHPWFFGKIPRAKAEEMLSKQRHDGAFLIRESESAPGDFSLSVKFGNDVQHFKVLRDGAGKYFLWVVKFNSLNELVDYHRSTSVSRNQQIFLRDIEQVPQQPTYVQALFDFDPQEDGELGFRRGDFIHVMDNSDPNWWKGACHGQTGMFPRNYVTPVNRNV
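Throughout, for SH2 binding enrichment of the phosphorylated peptide, bacterial display: peptide library displayed on the E. coli surface as eCPX fusions, selected cells deep-sequenced, score is each peptide's frequency after selection divided by its frequency in the input.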
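Throughout, for phosphorylation enrichment, bacterial display: 11-residue human phosphosite peptides and single-mutation variants displayed on the E. coli surface, counted by deep sequencing, each peptide's frequency after selection divided by its frequency in the unselected input library; frequency after pTyr selection over input frequency; kinase dosed for 20-30% of maximal phosphorylation in three min.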

FGFR3, sequence (P22607 whole entry, looked up): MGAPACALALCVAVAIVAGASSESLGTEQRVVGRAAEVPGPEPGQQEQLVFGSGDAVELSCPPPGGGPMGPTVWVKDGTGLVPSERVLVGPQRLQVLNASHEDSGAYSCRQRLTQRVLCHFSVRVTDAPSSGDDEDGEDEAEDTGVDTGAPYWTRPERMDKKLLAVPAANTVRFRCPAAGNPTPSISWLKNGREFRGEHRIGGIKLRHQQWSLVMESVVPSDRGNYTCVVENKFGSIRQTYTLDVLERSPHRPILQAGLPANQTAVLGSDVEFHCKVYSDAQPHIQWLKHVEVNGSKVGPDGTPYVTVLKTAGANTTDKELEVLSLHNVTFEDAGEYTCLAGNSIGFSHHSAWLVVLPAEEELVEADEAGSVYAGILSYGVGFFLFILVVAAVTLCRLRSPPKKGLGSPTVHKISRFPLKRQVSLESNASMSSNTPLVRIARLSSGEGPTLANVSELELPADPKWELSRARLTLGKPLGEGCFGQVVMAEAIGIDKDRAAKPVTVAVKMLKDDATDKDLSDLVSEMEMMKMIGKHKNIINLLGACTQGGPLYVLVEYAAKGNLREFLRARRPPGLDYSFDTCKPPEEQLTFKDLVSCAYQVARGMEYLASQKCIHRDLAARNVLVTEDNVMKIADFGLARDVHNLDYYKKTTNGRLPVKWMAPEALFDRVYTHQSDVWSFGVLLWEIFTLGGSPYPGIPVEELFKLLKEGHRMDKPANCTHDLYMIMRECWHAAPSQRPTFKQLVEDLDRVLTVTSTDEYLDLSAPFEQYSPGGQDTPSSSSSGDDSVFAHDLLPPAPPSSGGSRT
Jak2, sequence (O60674 whole entry, looked up): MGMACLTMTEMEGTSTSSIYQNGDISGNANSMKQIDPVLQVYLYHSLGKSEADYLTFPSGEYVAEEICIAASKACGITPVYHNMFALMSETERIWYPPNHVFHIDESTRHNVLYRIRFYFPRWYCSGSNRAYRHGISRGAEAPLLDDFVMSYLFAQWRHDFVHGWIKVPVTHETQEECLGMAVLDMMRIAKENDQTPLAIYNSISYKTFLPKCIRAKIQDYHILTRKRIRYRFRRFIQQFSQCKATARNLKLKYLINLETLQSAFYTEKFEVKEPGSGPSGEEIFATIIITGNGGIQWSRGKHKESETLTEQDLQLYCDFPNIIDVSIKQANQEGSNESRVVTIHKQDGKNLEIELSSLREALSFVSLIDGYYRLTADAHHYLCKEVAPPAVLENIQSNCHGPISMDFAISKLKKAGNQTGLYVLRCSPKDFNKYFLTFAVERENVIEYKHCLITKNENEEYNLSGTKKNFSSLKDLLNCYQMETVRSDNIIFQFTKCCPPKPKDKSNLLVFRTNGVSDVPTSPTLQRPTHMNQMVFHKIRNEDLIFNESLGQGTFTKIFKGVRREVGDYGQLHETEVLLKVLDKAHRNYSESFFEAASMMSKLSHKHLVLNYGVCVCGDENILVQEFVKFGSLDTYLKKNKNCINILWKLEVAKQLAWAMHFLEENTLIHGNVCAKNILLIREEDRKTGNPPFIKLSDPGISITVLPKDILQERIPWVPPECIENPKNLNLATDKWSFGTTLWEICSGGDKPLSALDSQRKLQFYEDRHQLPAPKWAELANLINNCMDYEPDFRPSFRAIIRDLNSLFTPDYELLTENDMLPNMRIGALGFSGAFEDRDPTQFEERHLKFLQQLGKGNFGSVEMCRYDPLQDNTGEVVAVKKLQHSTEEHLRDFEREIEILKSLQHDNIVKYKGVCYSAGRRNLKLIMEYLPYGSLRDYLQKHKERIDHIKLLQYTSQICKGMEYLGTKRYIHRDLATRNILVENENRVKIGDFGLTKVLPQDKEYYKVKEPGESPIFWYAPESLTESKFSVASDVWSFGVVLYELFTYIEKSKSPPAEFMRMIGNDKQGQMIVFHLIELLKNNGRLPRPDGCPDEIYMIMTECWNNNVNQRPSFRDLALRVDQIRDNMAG
Fyn, sequence (P06241 whole entry, looked up): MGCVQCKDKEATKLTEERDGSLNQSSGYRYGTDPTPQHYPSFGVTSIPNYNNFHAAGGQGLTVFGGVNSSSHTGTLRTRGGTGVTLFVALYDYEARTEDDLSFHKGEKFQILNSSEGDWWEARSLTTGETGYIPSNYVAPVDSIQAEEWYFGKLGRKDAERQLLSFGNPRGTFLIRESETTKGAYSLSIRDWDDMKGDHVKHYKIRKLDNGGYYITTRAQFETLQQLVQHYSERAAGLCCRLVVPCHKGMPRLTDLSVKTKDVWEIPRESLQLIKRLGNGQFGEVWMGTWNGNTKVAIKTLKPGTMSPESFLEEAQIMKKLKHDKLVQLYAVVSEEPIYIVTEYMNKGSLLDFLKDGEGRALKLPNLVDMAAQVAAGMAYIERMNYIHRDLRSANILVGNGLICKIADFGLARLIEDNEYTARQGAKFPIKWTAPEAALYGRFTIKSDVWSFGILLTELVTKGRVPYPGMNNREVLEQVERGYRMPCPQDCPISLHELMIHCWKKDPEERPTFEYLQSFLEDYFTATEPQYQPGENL

Sequence	phosphorylation enrichment [1]	phosphorylation enrichment [2]	phosphorylation enrichment [3]	phosphorylation enrichment [4]	phosphorylation enrichment [5]	phosphorylation enrichment [6]	phosphorylation enrichment [7]	phosphorylation enrichment [8]	phosphorylation enrichment [9]	phosphorylation enrichment [10]	phosphorylation enrichment [11]	phosphorylation enrichment [12]	phosphorylation enrichment [13]	SH2 binding enrichment [14]	SH2 binding enrichment [15]	SH2 binding enrichment [16]
NTADYYDLYGG [PTPN11_Y63_G60A]	5.99	1.13	6.09	3.39	15.3	14.7	3.04	14.9	5.89	1.47	3.44	16.2	1.59	0.782	0.81	1.05
ISDNAYQFMLT [MYH7_Y162_YF]	0.807	1.09	0.654	0.957	1.51	0.526	0.883	0.662	0.684	1.19	1.22	1.83	5.75	0.735	0.841	0.762
FDDGKYVFVVT [RPS6KA3_Y488_YF]	0.507	0.995	0.493	1.46	0.911	0.545	0.474	0.652	0.572	1.49	1.38	0.632	0.513	0.382	0.531	0.626
HRDDGYMPMSP [IRS1_Y612_T608R]	0.589	0.756	0.572	1.16	0.715	0.53	0.37	0.577	0.488	0.817	0.785	0.534	0.683	3.65	0.545	0.746
MAYDRYVAICS [OR8D4_Y123_C120Y]	0.762	1.03	0.486	1.15	0.753	2.12	0.77	1.28	0.745	1.01	1.01	0.603	0.547	0.98	0.713	0.766
CGTPTYLAPEV [CHEK2_Y390]	0.639	7.74	0.627	1.9	1.04	1.39	0.816	1.18	0.776	1.34	2.38	1.12	0.564	0.582	0.785	0.878
PRPACYPSTVS [CACNA1C_Y1832_G1831C]	0.484	0.437	0.51	0.721	0.598	0.435	0.356	0.575	0.49	0.792	0.554	0.49	0.381	0.65	0.8	0.865
RDLEQYVNNVN [PCDH19_Y1097]	0.541	0.968	0.405	1.09	0.633	0.625	0.612	0.64	0.377	1.01	1.06	0.476	0.356	0.59	0.573	1.8
INNIDYFKNTT [FGFR2_Y656_K659N_YF]	0.301	0.421	0.393	0.463	0.474	0.327	0.408	0.374	0.401	0.687	0.471	0.377	0.317	0.36	0.692	0.81
LSVEIHDRREF [ITGB7_Y753_Y753H_YF]	0.795	0.86	0.65	1.3	1.17	1.1	0.558	0.88	0.814	1.59	1.63	0.87	0.795	0.421	0.563	0.678
QRRNVYYYSYL [PTEN_Y176_Y174N]	8.15	1.15	9.83	8.42	11.6	3.05	16	5.79	7.54	1.41	1.72	16.4	2.77	1.58	1.27	0.955
DNEAIYDICRC [TUBA4A_Y210_R215C]	6.51	10.3	9.3	0.923	0.761	4.87	5.93	1.82	7.18	1.28	3.65	0.633	7.98	0.524	0.662	0.932
LNGDRYFKGIV [DCX_Y64_R59L]	0.626	0.703	2.87	0.942	3.96	3.35	1.37	2.3	4.24	4.84	4.62	4.77	3.94	0.618	0.686	0.78
KKGIVYIFNGR [ITGAV_Y404]	0.366	0.565	0.452	0.868	0.501	0.507	0.428	0.403	0.423	0.957	0.768	0.417	0.437	1.86	1.61	2.3
NKFTTYLPWLP [C9orf24_Y126_R129W_YF]	4.54	1.6	5.73	1.75	1.25	6.61	1.4	3.63	8.27	1.06	1.04	1.43	6.84	0.815	0.89	1.19
LNCIYYKDQTG [RS1_Y166_W163C]	1.4	1.08	2.93	1.42	4.51	1.15	1.78	3.64	4.01	3.26	3.56	2.69	1.55	0.551	0.743	0.867
RHPEVYHHLGI [NVL_Y290_V295I]	0.621	0.731	0.908	0.834	0.999	0.599	0.71	0.837	1.53	0.835	0.694	1.14	0.641	0.932	1.11	1.09

Sequence	phosphorylation enrichment [1]	phosphorylation enrichment [2]	phosphorylation enrichment [3]	phosphorylation enrichment [4]	phosphorylation enrichment [5]	phosphorylation enrichment [6]	phosphorylation enrichment [7]	phosphorylation enrichment [8]	phosphorylation enrichment [9]	phosphorylation enrichment [10]	phosphorylation enrichment [11]	phosphorylation enrichment [12]	phosphorylation enrichment [13]	SH2 binding enrichment [14]	SH2 binding enrichment [15]	SH2 binding enrichment [16]
DAASNYARGHF [TUBA3E_Y103_YF]	0.394	0.537	0.398	0.604	0.526	0.514	0.465	0.502	0.47	0.584	0.503	0.41	0.403	0.458	0.844	0.688
AIIGIYILRDN [CDH23_Y2949_D2954N]	1.68	0.888	0.925	1.05	0.793	0.631	0.423	0.687	1.6	1.39	1.36	0.604	0.596	0.987	1.42	1.44
KHTLSFVDVGT [SDHA_Y629_Y629F]	0.292	0.451	0.384	0.624	0.497	0.495	0.315	0.319	0.364	0.691	0.661	0.348	0.371	0.562	0.54	0.862
PVEAAYQKVVA [HBB_Y131_Q128E]	0.517	0.601	0.56	0.556	0.617	0.401	0.52	0.397	0.612	0.695	0.819	0.573	0.558	0.964	0.713	0.725
ELRGTYTSLQQ [KIF3C_Y574]	1.39	0.684	0.978	0.777	0.535	0.481	0.434	0.398	0.956	0.869	0.705	0.489	0.428	3.05	4.42	0.775
LRNIDYYRLDG [ATRX_Y2083]	3.35	0.815	3.96	6.17	8.11	0.776	0.851	1.07	1.16	1.58	1.3	13.1	0.499	0.775	11.9	0.874
GRTGHYLCNAC [GATA1_Y223_D218G]	0.296	0.375	0.332	0.446	0.433	0.287	0.481	0.4	0.392	0.631	0.445	0.436	0.32	0.917	0.872	1.25
MPIPMYDASQA [CARMIL1_Y637]	0.46	0.824	0.643	0.717	0.629	1.01	0.566	0.867	0.552	0.73	0.751	0.595	0.565	0.537	0.75	0.887
SHLSSYTTHPQ [NIPBL_Y195_P192L]	0.419	0.534	0.451	0.663	0.591	0.393	0.399	0.389	0.44	0.726	0.569	0.435	0.392	0.482	0.575	0.714
DKATEYIQYVR [MAX_Y70_M74V]	0.493	0.582	0.535	0.763	0.507	0.582	0.425	0.519	0.552	0.976	0.983	0.506	0.43	0.517	1.27	0.94
MKKKIYAMGGG [GAN_Y424]	0.393	0.519	0.297	0.39	0.341	0.302	0.432	0.335	0.414	0.465	0.397	0.376	0.389	0.679	0.979	1.15
KKFPDYIQIAR [SGMS2_Y59_M64R_YF]	0.488	0.657	0.432	1.15	2.26	0.649	0.421	3.85	0.478	0.713	0.848	4.29	0.399	0.825	0.884	1.13
QNTVDYFDLFG [PTPN11_Y62_G60V_YF]	0.619	0.988	0.614	2.22	12.3	1.16	0.646	2.34	0.595	1.44	2.35	16.2	0.609	0.759	0.876	1.14
LNPFIYSLRNW [OR1A2_Y288]	8.69	4.13	7.05	1.34	1.1	0.819	4.23	1.52	6.49	1.73	2.05	0.644	2.28	1.79	1.78	1.23
KQRKEYMHRRQ [IQGAP2_Y710]	0.518	0.649	0.477	0.636	0.519	0.444	0.452	0.551	0.526	0.715	0.696	0.375	0.437	0.447	0.392	0.78
CPTIHYNYMCN [TP53_Y234_T230P]	0.462	0.634	0.594	0.776	0.586	0.607	0.462	0.603	0.429	0.999	0.843	0.54	0.621	8.28	4.49	1.02
